Measurements reported in US20060039904A1 (AstraZeneca / MedImmune, published 2006).

B1: Vitaxin®-1M (Vitaxin® Fc variant I332E, IgG1) (antibody)
heavy: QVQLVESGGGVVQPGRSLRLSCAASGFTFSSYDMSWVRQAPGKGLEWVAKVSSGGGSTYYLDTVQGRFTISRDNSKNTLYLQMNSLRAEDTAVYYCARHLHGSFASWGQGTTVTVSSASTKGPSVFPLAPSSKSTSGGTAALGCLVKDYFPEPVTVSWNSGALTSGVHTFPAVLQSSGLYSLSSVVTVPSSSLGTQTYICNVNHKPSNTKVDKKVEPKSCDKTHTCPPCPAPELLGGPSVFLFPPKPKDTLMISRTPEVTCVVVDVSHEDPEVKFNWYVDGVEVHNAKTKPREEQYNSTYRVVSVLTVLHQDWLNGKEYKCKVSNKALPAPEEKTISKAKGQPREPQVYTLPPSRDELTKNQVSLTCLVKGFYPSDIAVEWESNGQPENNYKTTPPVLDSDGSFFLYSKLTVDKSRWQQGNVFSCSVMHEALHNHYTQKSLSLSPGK
VL: EIVLTQSPATLSLSPGERATLSCQASQSISNFLHWYQQRPGQAPRLLIRYRSQSISGIPARFSGSGSGTDFTLTISSLEPEDFAVYYCQQSGSWPLTFGGGTKVEIK
notes: Full length IgG1 with I332E in the Fc; expressed in 293H/HEK293 cells; also called I332E Fc variant; Vitaxin® Fc (I332E) variant
B2: Vitaxin®-3M (Vitaxin® Fc variant S239D/A330L/I332E, IgG1) (antibody)
heavy: QVQLVESGGGVVQPGRSLRLSCAASGFTFSSYDMSWVRQAPGKGLEWVAKVSSGGGSTYYLDTVQGRFTISRDNSKNTLYLQMNSLRAEDTAVYYCARHLHGSFASWGQGTTVTVSSASTKGPSVFPLAPSSKSTSGGTAALGCLVKDYFPEPVTVSWNSGALTSGVHTFPAVLQSSGLYSLSSVVTVPSSSLGTQTYICNVNHKPSNTKVDKKVEPKSCDKTHTCPPCPAPELLGGPDVFLFPPKPKDTLMISRTPEVTCVVVDVSHEDPEVKFNWYVDGVEVHNAKTKPREEQYNSTYRVVSVLTVLHQDWLNGKEYKCKVSNKALPLPEEKTISKAKGQPREPQVYTLPPSRDELTKNQVSLTCLVKGFYPSDIAVEWESNGQPENNYKTTPPVLDSDGSFFLYSKLTVDKSRWQQGNVFSCSVMHEALHNHYTQKSLSLSPGK
VL: EIVLTQSPATLSLSPGERATLSCQASQSISNFLHWYQQRPGQAPRLLIRYRSQSISGIPARFSGSGSGTDFTLTISSLEPEDFAVYYCQQSGSWPLTFGGGTKVEIK
notes: I332E is used here; also called Vitaxin S239D/A330L/I332E

How the values were obtained:
[1] = target: T1, FcγRIIIA (soluble receptor used as analyte in the BIAcore runs) (human, UniProt P08637 17-208); test: BIAcore run 1, IgG immobilized, soluble FcγRIIIA, steady-state isotherm
[2] = target: T1, FcγRIIIA (soluble receptor used as …); test: BIAcore run 2, IgG immobilized, soluble FcγRIIIA, Scatchard plot
[3] = target: T1, FcγRIIIA (soluble receptor used as …); test: BIAcore run 2, ratio of isotherm KD values against wild type Vitaxin®
[4] = target: T1, FcγRIIIA (soluble receptor used as …); test: BIAcore run 1, IgG immobilized, soluble FcγRIIIA, Scatchard plot
[5] = target: T1, FcγRIIIA (soluble receptor used as …); test: BIAcore run 1, ratio of isotherm KD values against wild type Vitaxin®
[6] = target: T1, FcγRIIIA (soluble receptor used as …); test: BIAcore run 2, IgG immobilized, soluble FcγRIIIA, steady-state isotherm

T1 sequence (P08637 17-208): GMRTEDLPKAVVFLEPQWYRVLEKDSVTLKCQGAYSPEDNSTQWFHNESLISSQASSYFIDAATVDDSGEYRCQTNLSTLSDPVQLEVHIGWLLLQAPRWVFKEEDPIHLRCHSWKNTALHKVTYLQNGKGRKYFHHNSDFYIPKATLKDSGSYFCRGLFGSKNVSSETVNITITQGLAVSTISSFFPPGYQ

| Binder | Kd [1] | Kd [2] | Fold increase over WT [3] | Kd [4] | Fold increase over WT [5] | Kd [6] |
| --- | --- | --- | --- | --- | --- | --- |
| B1 | 458 nM | 1220 nM | 7 fold | 458 nM | 6.5 fold | 1280 nM |
| B2 | – | – | – | – | – | 114 nM |
